# In patent US20150344570A1 (published 2015):
# Molecular target: T1, FcγRIa (human, UniProt P12314 16-292)
# T1 construct: extracellular domain; Soluble extracellular domain with C-terminal His tag, expressed in FreeStyle293 cells; analyte in Biacore; also called FcgRI; CD64; not shown: His tag attached to the C terminus
# Assay: SPR (Biacore), antibody captured on antigen-peptide chip, FcγRIa as analyte; binding activity relative to control GpH7-B3/GpL16-k0 (HoCon Ab) x100
# Description: (§1) Analysis of interaction between objective antibody and the FcγR was carried out using Biacore T100 (GE Healthcare). HBS-EP+ (GE Healthcare) was used as the running buffer, and the measurement temperature was set to 25° C. Chips produced by immobilizing the antigen peptide by the amine coupling method to a Series S Sencor Chip CM5 (GE Healthcare), or alternatively, chips produced by allowing preliminarily biotinylated antigen peptides to interact with and immobilize onto a Series S Sensor Chip SA (certified) (GE Healthcare) were used. Antibodies of interest were captured onto an antigen peptide-immobilized chip, and allowed to interact to each FcγR diluted with running buffer. To regenerate and repeatedly use the chip, the antibodies captured on the chip were washed off by reacting 10 mM glycine-HCl, pH 1.5.
# T1 sequence (P12314 16-292): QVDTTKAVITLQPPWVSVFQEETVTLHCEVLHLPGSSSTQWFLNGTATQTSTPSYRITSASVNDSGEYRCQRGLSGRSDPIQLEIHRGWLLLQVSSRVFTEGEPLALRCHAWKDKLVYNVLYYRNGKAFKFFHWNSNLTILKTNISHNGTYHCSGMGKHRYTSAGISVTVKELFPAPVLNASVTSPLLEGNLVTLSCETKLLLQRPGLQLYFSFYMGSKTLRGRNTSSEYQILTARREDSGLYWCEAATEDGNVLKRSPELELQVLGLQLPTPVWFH
row,Ho/Con_1a,Binder
1,104 % of control (=100),"GpH7-B3 variant Y296_19Q/GpL16-k0 (homodimerized antibody, Ho Ab) (antibody, human IgG1, kappa, Anti-glypican-3 IgG1 (G1d with K439E); same alteration in both H chains) heavy: not shown light: DIVMTQSPLSLPVTPGEPASISCQASESLVHSNRNTYLHWYLQKPGQSPQLLIYKVSNRFSGVPDRFSGSGSGTDFTLKISRVEAEDVGVYYCSQNTHVPPTFGQGTKVEIERTVAAPSVFIFPPSDEQLKSGTASVVCLLNNFYPREAKVQWKVDNALQSGNSQESVTEQDSKDSTYSLSSTLTLSKADYEKHKVYACEVTHQGLSSPVTKSFNRGEC"
2,105 % of control (=100),"GpH7-B3 variant Y296_14T/GpL16-k0 (homodimerized antibody, Ho Ab) (antibody, human IgG1, kappa, Anti-glypican-3 IgG1 (G1d with K439E); same alteration in both H chains) heavy: not shown light: DIVMTQSPLSLPVTPGEPASISCQASESLVHSNRNTYLHWYLQKPGQSPQLLIYKVSNRFSGVPDRFSGSGSGTDFTLKISRVEAEDVGVYYCSQNTHVPPTFGQGTKVEIERTVAAPSVFIFPPSDEQLKSGTASVVCLLNNFYPREAKVQWKVDNALQSGNSQESVTEQDSKDSTYSLSSTLTLSKADYEKHKVYACEVTHQGLSSPVTKSFNRGEC"
3,112 % of control (=100),"GpH7-B3 variant Y300_03V/GpL16-k0 (homodimerized antibody, Ho Ab) (antibody, human IgG1, kappa, Anti-glypican-3 IgG1 (G1d with K439E); same alteration in both H chains) heavy: not shown light: DIVMTQSPLSLPVTPGEPASISCQASESLVHSNRNTYLHWYLQKPGQSPQLLIYKVSNRFSGVPDRFSGSGSGTDFTLKISRVEAEDVGVYYCSQNTHVPPTFGQGTKVEIERTVAAPSVFIFPPSDEQLKSGTASVVCLLNNFYPREAKVQWKVDNALQSGNSQESVTEQDSKDSTYSLSSTLTLSKADYEKHKVYACEVTHQGLSSPVTKSFNRGEC"
4,101 % of control (=100),"GpH7-B3 variant Y300_11K/GpL16-k0 (homodimerized antibody, Ho Ab) (antibody, human IgG1, kappa, Anti-glypican-3 IgG1 (G1d with K439E); same alteration in both H chains) heavy: not shown light: DIVMTQSPLSLPVTPGEPASISCQASESLVHSNRNTYLHWYLQKPGQSPQLLIYKVSNRFSGVPDRFSGSGSGTDFTLKISRVEAEDVGVYYCSQNTHVPPTFGQGTKVEIERTVAAPSVFIFPPSDEQLKSGTASVVCLLNNFYPREAKVQWKVDNALQSGNSQESVTEQDSKDSTYSLSSTLTLSKADYEKHKVYACEVTHQGLSSPVTKSFNRGEC"
5,110 % of control (=100),"GpH7-B3 variant Y300_13S/GpL16-k0 (homodimerized antibody, Ho Ab) (antibody, human IgG1, kappa, Anti-glypican-3 IgG1 (G1d with K439E); same alteration in both H chains) heavy: not shown light: DIVMTQSPLSLPVTPGEPASISCQASESLVHSNRNTYLHWYLQKPGQSPQLLIYKVSNRFSGVPDRFSGSGSGTDFTLKISRVEAEDVGVYYCSQNTHVPPTFGQGTKVEIERTVAAPSVFIFPPSDEQLKSGTASVVCLLNNFYPREAKVQWKVDNALQSGNSQESVTEQDSKDSTYSLSSTLTLSKADYEKHKVYACEVTHQGLSSPVTKSFNRGEC"
6,105 % of control (=100),"GpH7-B3 variant Y296_16H/GpL16-k0 (homodimerized antibody, Ho Ab) (antibody, human IgG1, kappa, Anti-glypican-3 IgG1 (G1d with K439E); same alteration in both H chains) heavy: not shown light: DIVMTQSPLSLPVTPGEPASISCQASESLVHSNRNTYLHWYLQKPGQSPQLLIYKVSNRFSGVPDRFSGSGSGTDFTLKISRVEAEDVGVYYCSQNTHVPPTFGQGTKVEIERTVAAPSVFIFPPSDEQLKSGTASVVCLLNNFYPREAKVQWKVDNALQSGNSQESVTEQDSKDSTYSLSSTLTLSKADYEKHKVYACEVTHQGLSSPVTKSFNRGEC"
7,111 % of control (=100),"GpH7-B3 variant Y300_06M/GpL16-k0 (homodimerized antibody, Ho Ab) (antibody, human IgG1, kappa, Anti-glypican-3 IgG1 (G1d with K439E); same alteration in both H chains) heavy: not shown light: DIVMTQSPLSLPVTPGEPASISCQASESLVHSNRNTYLHWYLQKPGQSPQLLIYKVSNRFSGVPDRFSGSGSGTDFTLKISRVEAEDVGVYYCSQNTHVPPTFGQGTKVEIERTVAAPSVFIFPPSDEQLKSGTASVVCLLNNFYPREAKVQWKVDNALQSGNSQESVTEQDSKDSTYSLSSTLTLSKADYEKHKVYACEVTHQGLSSPVTKSFNRGEC"

# Molecular target: T1, FcγRIa
# Assay: SPR (Biacore), antibody captured on antigen-peptide chip, FcγRIa as analyte; binding activity relative to control GpH7-A5/GpH7-B3/GpL16-k0 (HeCon Ab) x100
# Description: as §1
row,He/Con_1a,Binder
1,116 % of control (=100),"GpH7-A5/GpH7-B3 variant Y300_01G/GpL16-k0 (heterodimerized antibody, He Ab) (antibody, human IgG1, kappa, Anti-glypican-3 IgG1; alteration only in the GpH7-B3 (K439E) chain; other H chain is GpH7-A5 (D356K/H435R)) heavy 1: not shown heavy 2: not shown light: DIVMTQSPLSLPVTPGEPASISCQASESLVHSNRNTYLHWYLQKPGQSPQLLIYKVSNRFSGVPDRFSGSGSGTDFTLKISRVEAEDVGVYYCSQNTHVPPTFGQGTKVEIERTVAAPSVFIFPPSDEQLKSGTASVVCLLNNFYPREAKVQWKVDNALQSGNSQESVTEQDSKDSTYSLSSTLTLSKADYEKHKVYACEVTHQGLSSPVTKSFNRGEC"
2,105 % of control (=100),"GpH7-A5/GpH7-B3 variant T335_19Q/GpL16-k0 (heterodimerized antibody, He Ab) (antibody, human IgG1, kappa, Anti-glypican-3 IgG1; alteration only in the GpH7-B3 (K439E) chain; other H chain is GpH7-A5 (D356K/H435R)) heavy 1: not shown heavy 2: not shown light: DIVMTQSPLSLPVTPGEPASISCQASESLVHSNRNTYLHWYLQKPGQSPQLLIYKVSNRFSGVPDRFSGSGSGTDFTLKISRVEAEDVGVYYCSQNTHVPPTFGQGTKVEIERTVAAPSVFIFPPSDEQLKSGTASVVCLLNNFYPREAKVQWKVDNALQSGNSQESVTEQDSKDSTYSLSSTLTLSKADYEKHKVYACEVTHQGLSSPVTKSFNRGEC"
3,106 % of control (=100),"GpH7-A5/GpH7-B3 variant T335_18N/GpL16-k0 (heterodimerized antibody, He Ab) (antibody, human IgG1, kappa, Anti-glypican-3 IgG1; alteration only in the GpH7-B3 (K439E) chain; other H chain is GpH7-A5 (D356K/H435R)) heavy 1: not shown heavy 2: not shown light: DIVMTQSPLSLPVTPGEPASISCQASESLVHSNRNTYLHWYLQKPGQSPQLLIYKVSNRFSGVPDRFSGSGSGTDFTLKISRVEAEDVGVYYCSQNTHVPPTFGQGTKVEIERTVAAPSVFIFPPSDEQLKSGTASVVCLLNNFYPREAKVQWKVDNALQSGNSQESVTEQDSKDSTYSLSSTLTLSKADYEKHKVYACEVTHQGLSSPVTKSFNRGEC"
4,106 % of control (=100),"GpH7-A5/GpH7-B3 variant T335_16H/GpL16-k0 (heterodimerized antibody, He Ab) (antibody, human IgG1, kappa, Anti-glypican-3 IgG1; alteration only in the GpH7-B3 (K439E) chain; other H chain is GpH7-A5 (D356K/H435R)) heavy 1: not shown heavy 2: not shown light: DIVMTQSPLSLPVTPGEPASISCQASESLVHSNRNTYLHWYLQKPGQSPQLLIYKVSNRFSGVPDRFSGSGSGTDFTLKISRVEAEDVGVYYCSQNTHVPPTFGQGTKVEIERTVAAPSVFIFPPSDEQLKSGTASVVCLLNNFYPREAKVQWKVDNALQSGNSQESVTEQDSKDSTYSLSSTLTLSKADYEKHKVYACEVTHQGLSSPVTKSFNRGEC"
